Source: paper PMC3326331 (Nucleic Acids Research, 2011)

T1: His6-tagged human PSF (polypyrimidine tract binding protein associated splicing factor) (human, UniProt P23246 1-707)
T1 sequence (looked up): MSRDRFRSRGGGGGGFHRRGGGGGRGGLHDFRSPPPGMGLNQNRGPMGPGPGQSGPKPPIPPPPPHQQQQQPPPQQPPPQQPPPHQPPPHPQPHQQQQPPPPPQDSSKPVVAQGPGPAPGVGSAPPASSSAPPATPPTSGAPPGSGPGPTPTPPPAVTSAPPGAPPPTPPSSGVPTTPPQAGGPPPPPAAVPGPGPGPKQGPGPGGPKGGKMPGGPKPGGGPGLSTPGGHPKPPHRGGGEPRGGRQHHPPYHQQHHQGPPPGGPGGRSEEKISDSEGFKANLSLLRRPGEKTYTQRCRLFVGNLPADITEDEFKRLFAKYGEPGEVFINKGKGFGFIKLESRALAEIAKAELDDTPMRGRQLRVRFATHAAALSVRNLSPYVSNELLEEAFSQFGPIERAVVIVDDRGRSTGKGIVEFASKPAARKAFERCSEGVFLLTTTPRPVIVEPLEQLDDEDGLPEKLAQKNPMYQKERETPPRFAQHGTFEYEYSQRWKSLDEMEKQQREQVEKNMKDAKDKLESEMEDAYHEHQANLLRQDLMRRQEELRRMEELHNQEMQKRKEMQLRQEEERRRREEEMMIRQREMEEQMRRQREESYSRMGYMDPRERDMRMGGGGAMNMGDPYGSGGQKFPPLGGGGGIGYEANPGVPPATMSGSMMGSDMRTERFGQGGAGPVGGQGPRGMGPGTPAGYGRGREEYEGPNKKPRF

B1: human DMC1 (natural protein, UniProt Q14565 1-340, looked up)
chain: MKEDQVVAEEPGFQDEEESLFQDIDLLQKHGINVADIKKLKSVGICTIKGIQMTTRRALCNVKGLSEAKVDKIKEAANKLIEPGFLTAFEYSEKRKMVFHITTGSQEFDKLLGGGIESMAITEAFGEFRTGKTQLSHTLCVTAQLPGAGGYPGGKIIFIDTENTFRPDRLRDIADRFNVDHDAVLDNVLYARAYTSEHQMELLDYVAAKFHEEAGIFKLLIIDSIMALFRVDFSGRGELAERQQKLAQMLSRLQKISEEYNVAVFVTNQMTADPGATMTFQADPKKPIGGHILAHASTTRISLRKGRGELRIAKIYDSPEMPENEATFAITAGGIGDAKE
B2: human RAD51 (natural protein, UniProt Q06609 1-339, looked up)
chain: MAMQMQLEANADTSVEEESFGPQPISRLEQCGINANDVKKLEEAGFHTVEAVAYAPKKELINIKGISEAKADKILAEAAKLVPMGFTTATEFHQRRSEIIQITTGSKELDKLLQGGIETGSITEMFGEFRTGKTQICHTLAVTCQLPIDRGGGEGKAMYIDTEGTFRPERLLAVAERYGLSGSDVLDNVAYARAFNTDHQTQLLYQASAMMVESRYALLIVDSATALYRTDYSGRGELSARQMHLARFLRMLLRLADEFGVAVVITNQVVAQVDGAAMFAADPKKPIGGNIIAHASTTRLYLRKGRGETRICKIYDSPCLPEAEAMFAINADGVGDAKD

Target: T1, His6-tagged human PSF (polypyrimidine …)
Assay: pull-down

Binder	binding result
B1	binds
B2	binds
